From patent US20240002500A1 (GUANGDONG FAPON BIOPHARMA, published 2024)

Tests used:
[1] = biological target: T1, full-length human TIGIT on cells (human, UniProt Q495A1 22-244); assay: FACS titration on PBMC of healthy people (natural TIGIT); unit taken from the x axis Log[µg/mL]; the curve still rises at the highest concentration (MFI about 11000 at log 1), no plateau, the fitted value lies outside the range shown
T1 construct: whole, on cells; The same protein is used for CHO-hTIGIT, PBMC and NK92-hTIGIT; the cells are named under assay; also called CHO-hTIGIT; hTIGIT
T1 sequence (looked up): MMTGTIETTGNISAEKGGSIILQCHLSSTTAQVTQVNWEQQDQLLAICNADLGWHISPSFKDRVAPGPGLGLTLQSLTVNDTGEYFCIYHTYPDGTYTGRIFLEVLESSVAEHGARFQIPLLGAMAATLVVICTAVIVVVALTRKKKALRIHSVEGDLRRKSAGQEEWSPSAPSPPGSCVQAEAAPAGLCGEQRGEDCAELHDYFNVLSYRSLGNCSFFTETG
Procedure: (§1) In order to verify that the prepared anti-human TIGIT antibody may effectively bind to naturally expressed TIGIT, the following experiments were specifically performed. PBMC cells in healthy people to be detected were counted, centrifuged at 300 g for 5 min, resuspended with an FCM buffer; and cell density was adjusted to 4E+06 cell/mL for later use. Samples to be detected (including a positive control antibody and a mouse monoclonal antibody) were diluted with the FCM buffer to 20 μg/mL, and then the FCM buffer was used to perform 3× serial dilutions of 12 concentration points; and the isotype control antibody was diluted with the FCM buffer to 20 μg/mL. According to an experimental design, in each well, 50 μL of the antibody and 50 μL of the cell (the volume of each cell added into a 96-well V-shaped plate being 2E+05 cell/well) were respectively added in the 96-well V-shaped plate; and incubation was performed in dark on ice for 30 min. Centrifugation (300 g/5 min) was performed; supernatant was discarded; 200 μL of the FCM buffer was added for washing once; centrifugation (300 g/5 min) was performed; and the supernatant was discarded. […] Centrifugation (300 g/5 min) was performed; supernatant was discarded; 200 μL of the FCM buffer was added for washing once; centrifugation (300 g/5 min) was performed; and the supernatant was discarded. […]

hTIGIT-hFc [2] = biological target: T2, hTIGIT-hFc (human, UniProt Q495A1 22-141); assay: FACS blocking: hTIGIT-hFc bound on U2-OS cells (PVR and CD112), then antibody, APC anti-human IgG Fc; first row of the table, row head not printed (fits the midpoint of the Tigit-5 curve; like table in Fig. 6A); unit from the x axis Log[µg/mL]
T2 construct: also called antigen protein hTIGIT-hFc; human TIGIT recombinant protein carrying a human Fc tag; not shown: human Fc tag
T2 sequence (looked up): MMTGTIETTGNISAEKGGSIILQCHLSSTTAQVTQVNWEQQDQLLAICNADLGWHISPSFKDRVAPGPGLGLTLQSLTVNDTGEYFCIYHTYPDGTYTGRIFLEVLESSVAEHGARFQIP
Procedure: (§2) U2-OS cells to be detected (human osteosarcoma cells, naturally and highly expressing PVR and CD112 by means of detection) were counted; centrifugated at 300 g for 5 min; resuspended with an FCM buffer; and cell density was adjusted to 4E+06 cell/mL for later use. […] According to an experimental design, in each well, 50 μL of the antigen protein and 50 μL of the cell (the volume of each cell added into a 96-well V-shaped plate being 2E+05 cell/well) were respectively added in the 96-well V-shaped plate; and incubation was performed in dark on ice for 30 min. Centrifugation (300 g/5 min) was performed; supernatant was discarded; 200 μL of the FCM buffer was added for washing once; centrifugation (300 g/5 min) was performed; and the supernatant was discarded. The antibody was added to the 96-well V-shaped plate (in 100 μL/well); and incubation was performed in dark on ice for 30 min. Centrifugation (300 g/5 min) was performed; supernatant was discarded; 200 μL of the FCM buffer was added for washing once; centrifugation (300 g/5 min) was performed; and the supernatant was discarded. Secondary antibodies (APC anti-human IgG Fc, 1:500 dilution) were added to the 96-well V-shaped plate (in 100 μL/well); and incubation was performed in dark on ice for 30 min. […]

[3] = biological target: T1, full-length human TIGIT on cells; assay: FACS titration on PBMC of healthy people (natural TIGIT); table under the plot, unit taken from the x axis Log[µg/mL]
Procedure: as §1

[4] = biological target: T1, full-length human TIGIT on cells; assay: FACS titration on PBMC of healthy people (natural TIGIT), PE goat anti-mouse IgG; number as printed beside the name, the marker of the legend lies on the leftmost curve
Procedure: as §1

hTIGIT-hFc [5] = biological target: T2, hTIGIT-hFc; assay: FACS blocking: hTIGIT-hFc bound on CHO-hCD112 cells, then antibody, APC anti-human IgG Fc; blocked partner CD112; unit as printed on the x axis, Log(uM); the method's top concentration of 20 µg/mL and the nM values of Fig. 5B speak for nM
Procedure: as §2, with “The CHO-engineered cell CHO-hCD112” for “U2-OS”, “recombinantly” for “to be detected (human osteosarcoma cells, naturally and highly”, “full-length human” for “PVR and”, “CD112” for “CD112 by means of detection)”

B1: Tigit-5 mouse monoclonal antibody (antibody, V domains shown)
VH: QVQLQQPGAELVRPGASVKLSCKASGYSFTSYWMNWVKQRPGQGLEWIGMIRPSDSETRLNQMFKDKATLTVDKSSSTAYMQLSSPTSDDSAVYYCAGIHDYGHGAYWGQGTLVTVSA
VL: DIQMIQSPASLSVSVGETVTITCRASENIYSNLAWYQQKQGKSPQLLVYAASHLPDGVPSRFSGSGSGTQYSLKINSLQSEDFGSYYCQHFWGTPRTFGGGTKLEIKR
notes: Mouse monoclonal antibody from hybridoma
How did the EC50 [1] turn out when B1 was run?
Its EC50 is about 310 µg/mL.

And the IC50 (hTIGIT-hFc [2])?
The IC50 was 0.335 µg/mL.

B2: 3Tigit-16 mouse monoclonal antibody (antibody, V domains shown)
VH: EVQLQQSGPELVKPGASVKMSCKASGFTFTDYFMDWVKQSRGASFEWIGRLNPNNGRTSYNQKFKGKATLTVDKSSSTAYMELNSLTSEDSAVYYCARGDLGRWYFDVWGAGTTVTVSS
VL: QIVLTQSPAIMSASPGEKVTMTCSASSSVSYMHWYQQKSGTSPKRWIYDTSKLASGVPTRFSGSGSGTSYSLTISSMEAEDAASYFCQQWSSNSLTFGAGTKLELKR
notes: as for B1
Which EC50 [3] does the source give for B2 here?
Its EC50 is 0.0247 µg/mL.

B3: 3Tigit-29 mouse monoclonal antibody (antibody, V domains shown)
VH: EVQLQQSGPELVKPGASVKISCKASGYTFTDYNMHWVKQSLGKSLEWIGYVNSFNGNTGYSQKFKSKVTLTVDRSSRTAYMDLRSLTSEDSAVFYCARSSRGGFAYWGQGTLVTVSA
VL: QIVLTQSPAIMSASPGEKVTMTCSASSSVSYMHWYQQKSGTSPKRWIYDTSKLASGVPARFSGSVSGTSYSLTISSMEAEDAATYYCQQWSSNSLTFGAGTKLELKR
notes: as for B1
For B3, which EC50 [3] is on record?
Its EC50 is 0.0217 µg/mL.

B4: 14Tigit-1-1 mouse monoclonal antibody (antibody, V domains shown)
VH: DVQLQESGPGLVKPSQSLSLTCTVTGYSITSDYAWNWIRQFPGNKLEWMGYISYSGSTRSNPSLKSRISITRDTSKNQFFLQLNSMTAEDTATYYCGGWEVRNYYAMDYWGQGTSVTVSS
VL: DIVMTQSHKFMSTSVGDRVSITCKASQHVSTAVAWYQQKPGQSPKLLIYSASYRYTGVPDRFTGSGSGTDFTFTISSVQAEDLAVYYCQQHYNTPWTFGGGTKLEIKR
notes: as for B1
How did the EC50 [4] turn out when B4 was run?
The EC50 was 0.179 nM.

What about the IC50 (hTIGIT-hFc [5]) of the same binder?
Its IC50 is 2600 nM.
